Results on two molecules are retold here after article PMC11592157, “Exploring the Biological Activity of a Humanized Anti-CD99 ScFv and Antibody for Targeting T Cell Malignancies” (Biomolecules, 2024).

Assay [1] has as its target T1, CD99 peptide number 6 (Biotin-Ahx-AVVDGENDDPRPPNP) (Homo sapiens).
T1 construct: stretch of human CD99
T1 chain: {Biotin-Ahx}-AVVDGENDDPRPPNP
In words: BLI; Biotin-Ahx-AVVDGENDDPRPPNP (10 ug/mL) loaded on streptavidin biosensors; antibody 0.625 to 10 ug/mL in PBS with 0.05% Tween 20; Octet K2. Particulars: both partners purified. (Biolayer interferometry detects binding as a change in optical thickness at a sensor tip.)

Assay [2] deals with T2, CD99 peptide number 6 (Biotin-Ahx-AVVDGENDDPRPPNP) (human).
T2 peptide: {Biotin-Ahx}-AVVDGENDDPRPPNP
Briefly: BLI.

The target of assay [3] is T3, CD99ExhIgG (Homo sapiens, UniProt P14209).
T3 construct: extracellular part of human CD99; also called CD99ExIgG; recombinant CD99ExhIgG; source: HEK293T stably expressing, culture supernatant, purified (HiTrap Protein G)
In words: ELISA; indirect ELISA; CD99ExhIgG (or CD147Rg as negative control) coated on the plate at 4 °C overnight; purified HuScFvMT99/3 (HIS6X) at 1, 5 and 10 ug/mL, room temperature 1 h; detected with HRP anti-His tag antibody. Particulars: both partners purified.

Where no end group is shown, it is not given here. The star is where a group is joined. Biotin = O=C1N[C@H]2[C@H](CS[C@H]2CCCCC(=O)*)N1; Ahx = NCCCCCC(=O)O

T3 sequence (P14209 23-122): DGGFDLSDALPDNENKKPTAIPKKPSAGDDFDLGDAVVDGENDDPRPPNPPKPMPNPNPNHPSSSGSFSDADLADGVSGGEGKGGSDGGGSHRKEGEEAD

B1: mouse anti-CD99 monoclonal antibody MT99/3 (antibody, V domains shown)
VH: VQLQQSGAELVKPGASVRLSCTLSGFNIKDTYIHWVNQRPEQGLEWIGRIDPGNGNIKYDPKFQGKATITADTSSNKVYLHLSSLTSEDTAVYYCARSGGYDFDYWGQGTTLTVSS
VL: DVVMTQTPLSLPVSLGYQVSISCRSSQSLVHSNGNTYLHWYLQKPGQSPKLLIYTVSNRFSGVPDRFSGSGSGTDFTLKISRVEAEDLGVYFCSQSTYVPYTFGGGTKLEKK
notes: mouse IgG heavy constant region; Parent antibody of m1 and m2; also called mAb MT99/3; mouse MT99/3
The Kd is a measure of binding affinity in units of concentration. Lower therefore signals a tighter complex. The term koff denotes the first-order rate constant of dissociation. Read a low koff as a long-lived complex. For the molecule B1, binding in assay [1] was put at a Kd of 0.316 nM. In assay [2], this molecule had a koff of 8.06e-05 s⁻¹.

B2: HuScFvMT99/3 (HIS6X) (scFv, V domains shown)
VH: QVQLQESGPGLVKPSETLSLTCTLSGFNIKDTYIHWVRQPPGKGLEWIGRIDPGNGNIKYDPKFQGRATISADTSKNQVSLNLDSVSAADTAIYYCARSGGYDFDYWGKGSTVTVSS
VL: VQMTQSPSSLSASVGDRVTITCRSSQSLVHSNGNTYLHWYQQKPGKAPKLLIYTVSNRFSGVPSRFSGSGSGTDFTFTISSLQPEDIATYFCSQSTYVPYTFGPGTKVDIK
notes: V-KAPPA domain of HuScFvMT99/3; linker of the ScFvkh format (V-KAPPA-linker-VH); VH domain of HuScFvMT99/3; order V-KAPPA-linker-VH; cloned NdeI/XhoI into pET-21a; also called humanized single-chain Fv MT99/3; humanized ScFv variant of mAb MT99/3; source: E. coli Origami B (DE3), purified (Ni-NTA agarose); not shown: His6, C-terminal, kept
Regarding B2, the binding result in assay [3] is listed as “binds”.
